Drawing on article PMC7994712 (Nature Communications, 2021), this text covers IC50 and cleaved bond for eight molecules.

A word on the IC50: it is the midpoint of a concentration-inhibition curve.

Like-named read-outs stand apart in the source and are kept apart here. Bridges are numbered along the chain shown (N, C = ends). Where no end group is shown, it is not given here.

The target in data set [1] is T1, SSTR2 (Homo sapiens, UniProt P30874).
T1 construct: host or cells: CHO-K1
Nature of the data set: Radio-ligand binding assay, SSTR2. The method, then:
(§1) Graphical and tabular representation of the percentage inhibition of specific binding, as IC50 (nM) binding values for the analogues against the five SSTR1-SSTR5 is represented in Supplementary Fig. 1b and Supplementary Table 1. […] IC50 values were determined by a non-linear, least squares regression analysis using Prism 9 (GraphPad Software, USA), using the Dose-response inhibition (three-parameters) model. […]
(§2) (SSTR1-SSTR5), using a Radio-ligand Binding Assay (Supplementary Figure 1b). Cells were incubated in HEPES buffer pH 7.4 with the new analogues of Cortistatin at 10 different concentrations in a range […]
(§3) specifically bound (performed at Eurofins Panlabs, Inc.). The radioactivity obtained in the absence of SST14 is considered as total binding and that obtained in the presence of 1 µM of SST14 is considered as nonspecific binding. Specific binding was considered as the difference between total and nonspecific.
(§4) Biochemical assay results are presented as the percent inhibition of specific bindin g (% inhib ition) as a […]
(§5) part of each binding assay with the five (SSTR1 -SS T R5 ) . I C50 values were determined by a non-linear, least squares regression analysis using Prism 9 (GraphPad Software, USA), using the Dose -response inhibit ion (t hree-parameters) model.

Data set [2] has as its target T2, SSTR1 (Homo sapiens, UniProt P30872).
T2 construct: host or cells: CHO-K1
Kind of data set: Radio-ligand binding assay, SSTR1. The procedure: as §1, §2, §3, §4, §5

In data set [3] the target is T3, SSTR3 (Homo sapiens, UniProt P32745).
T3 construct: host or cells: CHO-K1
T3 sequence (P32745 whole entry): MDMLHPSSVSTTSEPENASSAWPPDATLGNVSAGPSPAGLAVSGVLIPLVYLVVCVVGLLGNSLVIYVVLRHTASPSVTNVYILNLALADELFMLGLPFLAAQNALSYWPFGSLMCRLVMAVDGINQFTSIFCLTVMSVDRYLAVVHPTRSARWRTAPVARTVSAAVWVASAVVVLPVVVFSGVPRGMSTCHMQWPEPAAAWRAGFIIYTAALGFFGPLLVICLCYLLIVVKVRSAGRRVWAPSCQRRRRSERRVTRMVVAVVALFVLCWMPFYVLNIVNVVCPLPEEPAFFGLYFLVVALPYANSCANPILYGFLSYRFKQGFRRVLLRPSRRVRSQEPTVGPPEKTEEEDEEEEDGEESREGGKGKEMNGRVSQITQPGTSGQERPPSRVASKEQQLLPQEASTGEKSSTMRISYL
Kind of data set: Radio-ligand binding assay, SSTR3. The procedure:
as §1, §2, §3, §4, §5

For data set [4], the target named is Somatostatin receptor 5 (SSTR5) (human), P35346. Kind of data set: competition with 125I-Tyr11 SST14. As to conditions: D-Trp at position 7, disulfide bridge between the two cysteines.
Somatostatin receptor 5 (SSTR5) (human), P35346, sequence (P35346 whole entry): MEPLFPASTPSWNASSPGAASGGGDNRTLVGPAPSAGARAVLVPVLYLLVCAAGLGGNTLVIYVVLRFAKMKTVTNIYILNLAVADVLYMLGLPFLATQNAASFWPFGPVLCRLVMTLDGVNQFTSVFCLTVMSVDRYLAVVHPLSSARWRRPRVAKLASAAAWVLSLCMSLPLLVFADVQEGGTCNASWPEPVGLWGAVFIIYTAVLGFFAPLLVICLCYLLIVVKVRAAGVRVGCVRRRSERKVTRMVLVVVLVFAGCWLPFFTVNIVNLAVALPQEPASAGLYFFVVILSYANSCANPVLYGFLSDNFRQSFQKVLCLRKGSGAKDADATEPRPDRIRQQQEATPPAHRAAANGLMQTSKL
Data set [5] concerns the target Somatostatin receptor 1 (SSTR1) (human), P30872. Kind of data set: competition with 125I-Tyr11 SST14. As to conditions: D-Trp at position 7, disulfide bridge between the two cysteines.
Data set [6] deals with Somatostatin receptor 2 (SSTR2) (human), P30874. Nature of the data set: competition with 125I-Tyr11 SST14. The conditions noted are these: D-Trp at position 7, disulfide bridge between the two cysteines.
Somatostatin receptor 2 (SSTR2) (human), P30874, sequence (P30874 whole entry): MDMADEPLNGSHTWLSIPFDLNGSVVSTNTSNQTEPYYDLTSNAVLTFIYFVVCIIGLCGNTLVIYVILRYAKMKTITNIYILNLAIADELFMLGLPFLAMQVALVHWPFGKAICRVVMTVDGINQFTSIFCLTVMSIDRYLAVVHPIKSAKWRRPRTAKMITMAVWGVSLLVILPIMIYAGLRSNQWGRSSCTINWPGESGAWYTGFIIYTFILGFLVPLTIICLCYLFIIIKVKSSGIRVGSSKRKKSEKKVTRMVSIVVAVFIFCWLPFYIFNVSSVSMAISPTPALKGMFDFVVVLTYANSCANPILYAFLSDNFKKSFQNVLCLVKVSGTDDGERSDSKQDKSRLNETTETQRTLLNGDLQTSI
In data set [7] the target is Somatostatin receptor 3 (SSTR3) (human), P32745. Kind of data set: competition with 125I-Tyr11 SST14.
Somatostatin receptor 3 (SSTR3) (human), P32745, sequence (P32745 whole entry): as the sequence (P32745 whole entry) above
Data set [8] has as its target Somatostatin receptor 2 (SSTR2) (human), P30874. The conditions noted are these: octanoyl moiety at the N-terminus (N-octanoyl amide); L-mesityl alanine (Msa) at position 5; D-Trp at position 7; disulfide bridge between the two cysteines.
In data set [9] the target is Somatostatin receptor 5 (SSTR5) (human), P35346. As to conditions: octanoyl moiety at the N-terminus (N-octanoyl amide); L-mesityl alanine (Msa) at position 5; D-Trp at position 7; disulfide bridge between the two cysteines.
Data set [10] concerns the target Somatostatin receptor 1 (SSTR1) (human), P30872. The conditions noted are these: octanoyl moiety at the N-terminus (N-octanoyl amide); L-mesityl alanine (Msa) at position 5; D-Trp at position 7; disulfide bridge between the two cysteines.
In data set [11] the target is Somatostatin receptor 3 (SSTR3) (human), P32745. The conditions noted are these: octanoyl moiety at the N-terminus (N-octanoyl amide); L-mesityl alanine (Msa) at position 5; D-Trp at position 7; disulfide bridge between the two cysteines.
Data set [12] addresses Somatostatin receptor 2 (SSTR2) (human), P30874. As to conditions: chains peptide; internal disulfide bond between the two cysteines (cyclic peptide).
The target of data set [13] is Somatostatin receptor 4 (SSTR4) (human), P31391. The conditions noted are these: chains peptide; internal disulfide bond between the two cysteines (cyclic peptide).
Somatostatin receptor 4 (SSTR4) (human), P31391, sequence (P31391 whole entry): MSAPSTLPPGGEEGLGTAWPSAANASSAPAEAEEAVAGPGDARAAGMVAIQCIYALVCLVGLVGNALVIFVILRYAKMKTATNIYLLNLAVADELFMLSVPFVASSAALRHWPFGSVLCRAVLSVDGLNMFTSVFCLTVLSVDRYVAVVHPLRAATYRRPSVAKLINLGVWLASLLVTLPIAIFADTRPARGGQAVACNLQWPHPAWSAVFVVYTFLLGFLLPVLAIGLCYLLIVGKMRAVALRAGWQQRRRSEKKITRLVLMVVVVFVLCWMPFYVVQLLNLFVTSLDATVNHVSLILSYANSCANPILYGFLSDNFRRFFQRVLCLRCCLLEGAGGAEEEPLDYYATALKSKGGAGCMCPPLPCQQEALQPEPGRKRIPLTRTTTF
The target in data set [14] is Somatostatin receptor 1 (SSTR1) (human), P30872. The conditions noted are these: chains peptide; internal disulfide bond between the two cysteines (cyclic peptide).
Somatostatin receptor 1 (SSTR1) (human), P30872, sequence (P30872 whole entry): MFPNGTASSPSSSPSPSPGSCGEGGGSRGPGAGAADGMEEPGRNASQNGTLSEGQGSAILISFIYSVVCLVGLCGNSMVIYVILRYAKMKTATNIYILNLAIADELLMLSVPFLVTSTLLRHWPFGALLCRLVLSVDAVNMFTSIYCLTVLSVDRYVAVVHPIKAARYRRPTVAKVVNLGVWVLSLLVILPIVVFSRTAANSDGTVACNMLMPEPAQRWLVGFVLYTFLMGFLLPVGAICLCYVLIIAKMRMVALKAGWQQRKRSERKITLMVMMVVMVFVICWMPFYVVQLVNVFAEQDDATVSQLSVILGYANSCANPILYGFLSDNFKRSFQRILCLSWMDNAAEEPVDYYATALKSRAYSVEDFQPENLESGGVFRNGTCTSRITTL
Data set [15] has as its target Somatostatin receptor 5 (SSTR5) (human), P35346. The conditions noted are these: chains peptide; internal disulfide bond between the two cysteines (cyclic peptide).
The target in data set [16] is Somatostatin receptor 1 (SSTR1) (human), P30872. The conditions noted are these: L-mesityl alanine (2,4,6-trimethylphenylalanine, Msa) in place of Phe6; D-Trp at position 7; disulfide bridge between the two cysteines.
Data set [17] concerns the target Somatostatin receptor 3 (SSTR3) (human), P32745. The conditions noted are these: L-mesityl alanine (2,4,6-trimethylphenylalanine, Msa) in place of Phe6; D-Trp at position 7; disulfide bridge between the two cysteines.
Data set [18] has as its target Somatostatin receptor 2 (SSTR2) (human), P30874. The conditions noted are these: L-mesityl alanine (2,4,6-trimethylphenylalanine, Msa) in place of Phe6; D-Trp at position 7; disulfide bridge between the two cysteines.
Data set [19] addresses Somatostatin receptor 5 (SSTR5) (human), P35346. The conditions noted are these: L-mesityl alanine (2,4,6-trimethylphenylalanine, Msa) in place of Phe6; D-Trp at position 7; disulfide bridge between the two cysteines.
Data set [20] has as its target Somatostatin receptor 1 (SSTR1) (human), P30872. As to conditions: L-mesityl alanine (Msa) in place of Phe5; D-Trp at position 7; disulfide bridge between the two cysteines.
Data set [21] deals with Somatostatin receptor 3 (SSTR3) (human), P32745. The conditions noted are these: L-mesityl alanine (Msa) in place of Phe5; D-Trp at position 7; disulfide bridge between the two cysteines.
Data set [22] deals with Somatostatin receptor 5 (SSTR5) (human), P35346. The conditions noted are these: L-mesityl alanine (Msa) in place of Phe5; D-Trp at position 7; disulfide bridge between the two cysteines.
Data set [23] deals with Somatostatin receptor 2 (SSTR2) (human), P30874. The conditions noted are these: L-mesityl alanine (Msa) in place of Phe5; D-Trp at position 7; disulfide bridge between the two cysteines.
The target in data set [24] is Somatostatin receptor 5 (SSTR5) (human), P35346. The conditions noted are these: N-octanoyl amide on the N-terminal residue; L-mesityl alanine (Msa) at position 6; D-Trp at position 7; disulfide bridge between the two cysteines.
The target of data set [25] is Somatostatin receptor 2 (SSTR2) (human), P30874. As to conditions: N-octanoyl amide on the N-terminal residue; L-mesityl alanine (Msa) at position 6; D-Trp at position 7; disulfide bridge between the two cysteines.
Data set [26] addresses Somatostatin receptor 1 (SSTR1) (human), P30872. As to conditions: N-octanoyl amide on the N-terminal residue; L-mesityl alanine (Msa) at position 6; D-Trp at position 7; disulfide bridge between the two cysteines.
The target in data set [27] is Somatostatin receptor 3 (SSTR3) (human), P32745. The conditions noted are these: N-octanoyl amide on the N-terminal residue; L-mesityl alanine (Msa) at position 6; D-Trp at position 7; disulfide bridge between the two cysteines.
The mark [28] stands for this setting: octanoyl moiety at the N-terminus (N-octanoyl amide), L-mesityl alanine (Msa) at position 5.
The mark [29] stands for this setting: L-mesityl alanine (2,4,6-trimethylphenylalanine, Msa) in place of Phe6.
Setting [30] is: L-mesityl alanine (Msa) in place of Phe5.
Setting [31] is: N-octanoyl amide on the N-terminal residue, L-mesityl alanine (Msa) at position 6.

T1 sequence (P30874 whole entry): as the sequence (P30874 whole entry) above
T2 sequence (P30872 whole entry): as the sequence (P30872 whole entry) above

The molecule `CCCCCCCC(=O)N1CCC[C@H]1C(=O)N[C@H]1CSSC[C@@H](C(=O)N[C@@H](CCCCN)C(=O)O)NC(=O)[C@H](CO)NC(=O)[C@H]([C@@H](C)O)NC(=O)[C@H](Cc2ccccc2)NC(=O)[C@H]([C@@H](C)O)NC(=O)[C@H](CCCCN)NC(=O)[C@@H](Cc2c[nH]c3ccccc23)NC(=O)[C@H](Cc2c(C)cc(C)cc2C)NC(=O)[C@H](Cc2ccccc2)NC(=O)[C@H](CC(N)=O)NC(=O)[C@H](CCCCN)NC1=O` [A3] came in with a half-maximal inhibitory concentration (IC50) in data set [1] of 2.8 nM. This counts as single-digit nanomolar.
With `Cc1cc(C)c(C[C@@H]2NC(=O)[C@H](Cc3ccccc3)NC(=O)[C@H](CC(N)=O)NC(=O)[C@H](CCCCN)NC(=O)[C@@H](NC(=O)[C@@H]3CCCN3)CSSC[C@@H](C(=O)N[C@@H](CCCCN)C(=O)O)NC(=O)[C@H](CO)NC(=O)[C@H]([C@@H](C)O)NC(=O)[C@H](Cc3ccccc3)NC(=O)[C@H]([C@@H](C)O)NC(=O)[C@H](CCCCN)NC(=O)[C@@H](Cc3c[nH]c4ccccc34)NC2=O)c(C)c1` [A2], the results for the IC50 in data set [2], in [1] and in [3] were 14.1 nM, 0.42 nM and 16 nM, respectively.
Consider PCKNFFWKTFSSCK, for which the cleaved bond entry is on record as “Cys13-L-Lys14, major”.
Take PCKNFFWKTFTSCK [Cortistatin analogue 5]: the IC50 in [4] (setting [28]) is 1.12 nM; in data set [5] (setting [28]) it was 47.3 nM; in data set [6] (setting [28]) it was 35 nM; in data set [7] (octanoyl moiety at the N-terminus (N-octanoyl amide), L-mesityl alanine (Msa) at position 5, D-Trp at position 7, disulfide bridge between the two cysteines) it was 5.1 nM; in data set [8] it was 35 nM; in data set [9], 1.12 nM. Besides, the IC50 in data set [10] was 47.3 nM; in data set [11], 5.1 nM.
In the case of PCKNFFWKTFSSCK (disulfide 2-13 (inferred)) [Cortistatin-14 (r,mCST-14), Q62949 99-112], the IC50 is 0.09 nM in data set [12]; 0.3 nM in [7] (chains peptide, internal disulfide bond between the two cysteines (cyclic peptide)); 0.2 nM in data set [13]; 1.7 nM in data set [14]; 0.3 nM in data set [15].
With PCKNFFWKTFTSCK [Cortistatin analogue 2], the IC50 amounted to 14.1 nM in data set [16]; 16 nM in data set [17]; 33 nM in data set [4] (setting [29]); 14.1 nM in data set [5] (setting [29]); 0.42 nM in data set [6] (setting [29]); 16 nM in data set [7] (L-mesityl alanine (2,4,6-trimethylphenylalanine, Msa) in place of Phe6, D-Trp at position 7, disulfide bridge between the two cysteines). The IC50 in data set [18] was 0.42 nM; in data set [19], 33 nM.
For PCKNFFWKTFTSCK [Cortistatin analogue 4], the IC50 in data set [20] came out at 14.7 nM; in [21], 1.8 nM; in data set [22], 4 nM; in [4] (setting [30]) it was 4 nM; in [5] (setting [30]) it was 14.7 nM; in [6] (setting [30]), 9.8 nM. Moreover, the IC50 turned out to be 1.8 nM in data set [7] (L-mesityl alanine (Msa) in place of Phe5, D-Trp at position 7, disulfide bridge between the two cysteines) and 9.8 nM in data set [23].
Turning to PCKNFFWKTFTSCK [Cortistatin analogue 3], the IC50 in data set [24] is over 300 nM; in data set [25] it was 2.8 nM; in [4] (setting [31]), over 300 nM; in data set [5] (setting [31]) it was over 300 nM; in data set [6] (setting [31]) it was 2.8 nM; in [7] (N-octanoyl amide on the N-terminal residue, L-mesityl alanine (Msa) at position 6, D-Trp at position 7, disulfide bridge between the two cysteines) it was 100 nM. In addition, the values for the IC50 in [26] and in [27] were over 300 nM and 100 nM, respectively.
